Assay [1] addresses HLA-B*46:01. The experiment in a line: IEDB peptide-MHC binding, cellular MHC/competitive/fluorescence; ≥ and ≤ were set here for values at or beyond the usual limits of such assays. The note with it: source organism: Human herpesvirus 4 strain B95-8.
Another assay deals with HLA-B*27:05. Nature of the assay: IEDB peptide-MHC binding, purified MHC/competitive/fluorescence; ≥ and ≤ were set here for values at or beyond the usual limits of such assays. The note with it: source organism: hepatitis C virus genotype 1a.
For the next assay, the target named is HLA-A*68:23. The experiment in a line: IEDB peptide-MHC binding, purified MHC/competitive/fluorescence; filed as Kd, often an IC50 or EC50 that approximates it; ≥ and ≤ were set here for values at or beyond the usual limits of such assays.
For another assay, the target named is HLA-B*83:01. Described as above.
In the next assay the target is HLA-B*27:20. Described as above. The note with it: source organism: Cryptosporidium parvum Iowa II.
The next assay addresses HLA-A*32:07. Described as above. The note with it: source organism: Cryptosporidium parvum Iowa II.
For the next assay, the target named is HLA-B*40:13. Described as above.
The next assay addresses HLA-B*45:06. The assay is described as above.
The next assay deals with HLA-B*15:42. The description is as above.
The target of another assay is HLA-A*69:01. The experiment in a line: IEDB peptide-MHC binding, purified MHC/direct/fluorescence; filed as Kd, often an IC50 or EC50 that approximates it; ≥ and ≤ were set here for values at or beyond the usual limits of such assays. The note with it: source organism: Cryptosporidium parvum.
For a further assay, the target named is HLA-C*07:02. Described as above.
Another assay concerns the target HLA-A*02:01. The description is as above. The note with it: source organism: Cryptosporidium parvum.
The target in another assay is HLA-C*14:02. The experiment in a line: IEDB peptide-MHC binding, purified MHC/competitive/fluorescence; filed as Kd, often an IC50 or EC50 that approximates it; ≥ and ≤ were set here for values at or beyond the usual limits of such assays.
Assay [2] deals with HLA-C*06:02. Described as above. Conditions: source organism: Homo sapiens.
Another assay concerns the target HLA-C*12:03. Nature of the assay: IEDB peptide-MHC binding, purified MHC/direct/fluorescence; filed as Kd, often an IC50 or EC50 that approximates it; ≥ and ≤ were set here for values at or beyond the usual limits of such assays.
The next assay deals with HLA-A*29:02. The experiment in a line: IEDB peptide-MHC binding, purified MHC/competitive/fluorescence; filed as Kd, often an IC50 or EC50 that approximates it; ≥ and ≤ were set here for values at or beyond the usual limits of such assays.
The target in another assay is HLA-A*32:15. The assay is described as above. The note with it: source organism: Salmonella enterica subsp. arizonae serovar 62:z4,z23:-.
The target in the next assay is HLA-C*15:02. Nature of the assay: IEDB peptide-MHC binding, purified MHC/direct/fluorescence; filed as Kd, often an IC50 or EC50 that approximates it; ≥ and ≤ were set here for values at or beyond the usual limits of such assays. The note with it: source organism: Salmonella enterica subsp. arizonae serovar 62:z4,z23:-.
The target in another assay is HLA-B*51:01. Described as above. The note with it: source organism: Campylobacter jejuni.
A further assay concerns the target HLA-A*80:01. The assay is described as above. The note with it: source organism: Campylobacter jejuni.
For a further assay, the target named is HLA-B*18:01. Described as above. The note with it: source organism: Campylobacter jejuni.
Another assay addresses HLA-A*26:01. The assay is described as above. Conditions: source organism: Campylobacter jejuni.
Another assay has as its target HLA-B*27:03. The description is as above. Conditions: source organism: Campylobacter jejuni.
In the next assay the target is HLA-A*25:01. Described as above. The note with it: source organism: Campylobacter jejuni.
In another assay the target is HLA-A*02:03. The description is as above. Conditions: source organism: Campylobacter jejuni.
The next assay concerns the target HLA-A*03:01. Described as above. The note with it: source organism: Campylobacter jejuni.
The target in another assay is HLA-B*57:01. The description is as above. Conditions: source organism: Campylobacter jejuni.
The target of a further assay is HLA-A*02:11. The description is as above. The note with it: source organism: Campylobacter jejuni.
In assay [3] the target is HLA-C*04:01. The assay is described as above. The note with it: source organism: Campylobacter jejuni.
The next assay has as its target HLA-B*39:01. The assay is described as above. The note with it: source organism: Campylobacter jejuni.
In the next assay the target is HLA-A*02:12. The assay is described as above. Conditions: source organism: Campylobacter jejuni.
The target in assay [4] is HLA-B*46:01. The description is as above. The note with it: source organism: Campylobacter jejuni.
In a further assay the target is HLA-A*02:19. The description is as above. The note with it: source organism: Campylobacter jejuni.
Another assay addresses HLA-B*15:01. The assay is described as above. The note with it: source organism: Campylobacter jejuni.
The next assay addresses HLA-A*01:01. Nature of the assay: IEDB peptide-MHC binding, purified MHC/competitive/fluorescence; filed as Kd, often an IC50 or EC50 that approximates it; ≥ and ≤ were set here for values at or beyond the usual limits of such assays. The note with it: source organism: Homo sapiens.
The target in assay [5] is HLA-C*04:01. Described as above. The note with it: source organism: Homo sapiens.
Assay [6] deals with HLA-C*06:02. The experiment in a line: IEDB peptide-MHC binding, purified MHC/direct/fluorescence; filed as Kd, often an IC50 or EC50 that approximates it; ≥ and ≤ were set here for values at or beyond the usual limits of such assays. Conditions: source organism: Homo sapiens.
The mark [7] stands for this setting: source organism: Cryptosporidium parvum Iowa II.
Where [8] appears, read: source organism: Salmonella enterica subsp. arizonae serovar 62:z4,z23:-.

A word on the IC50: it is the concentration that gives 50% inhibition. A high value points to a need for much substance. A word on the Kd: it is a measure of binding affinity in units of concentration.

In the assay with HLA-B*46:01 [1], FTYPVLEEM showed an IC50 of 10 µM.

As for GGATICGKY, the IC50 in the assay with HLA-B*27:05 was at least 750 µM.

Take MQFPGSVGF: the dissociation constant (Kd) was 0.0424 µM with HLA-A*68:23 (setting [7]); at least 5 µM with HLA-B*83:01 (setting [7]); 0.0008 µM with HLA-B*27:20; 0.0012 µM with HLA-A*32:07; 0.0009 µM with HLA-B*40:13 (setting [7]); at least 5 µM with HLA-B*45:06 (setting [7]). The dissociation constant (Kd) with HLA-B*15:42 (setting [7]) was at least 5 µM; with HLA-A*69:01, 3.64 µM; in the assay with HLA-C*07:02 (setting [7]) it was 0.429 µM; with HLA-A*02:01, 0.769 µM.

As for VMAPRTLIL, the Kd with HLA-B*83:01 (source organism: Homo sapiens) was at least 5 µM; in the assay with HLA-C*14:02 (source organism: Homo sapiens), 0.208 µM; in the assay with HLA-C*06:02 [2], 3.79 µM; with HLA-B*45:06 (source organism: Homo sapiens), at least 5 µM; with HLA-B*15:42 (source organism: Homo sapiens) it was at least 5 µM; in the assay with HLA-C*12:03 (source organism: Homo sapiens), 0.397 µM.

YTIYGAWMF: the Kd in the assay with HLA-A*68:23 (setting [8]) was 0.0006 µM; with HLA-A*29:02 (setting [8]), 0.0006 µM; with HLA-B*83:01 (setting [8]) it was at least 5 µM; with HLA-C*14:02 (setting [8]) it was 0.347 µM; with HLA-A*32:15, 0.0796 µM; in the assay with HLA-B*40:13 (setting [8]) it was 0.397 µM. Besides, the Kd with HLA-B*45:06 (setting [8]) was at least 5 µM; in the assay with HLA-B*15:42 (setting [8]), at least 5 µM; in the assay with HLA-C*12:03 (setting [8]), 1.2 µM; with HLA-C*15:02 it was 1.73 µM.

Take YWDQVTFFY: the Kd was at least 20 µM in the assay with HLA-B*51:01; 0.056 µM with HLA-A*80:01; at least 20 µM with HLA-B*18:01; at least 20 µM with HLA-A*26:01; at least 20 µM in the assay with HLA-B*27:03; at least 20 µM with HLA-A*25:01. Also, the Kd in the assay with HLA-A*02:03, in the assay with HLA-A*03:01, in the assay with HLA-B*57:01, with HLA-A*02:11, in the assay with HLA-C*04:01 [3] and with HLA-B*39:01 was at least 20 µM in each case. Besides, the Kd with HLA-A*02:12, in the assay with HLA-B*46:01 [4], with HLA-A*02:19 and with HLA-B*15:01 was at least 20 µM in each case.

YYWPRPRRY: the Kd is at most 0.0001 µM with HLA-A*29:02 (source organism: Homo sapiens); at least 5 µM with HLA-B*83:01 (source organism: Homo sapiens); at least 20 µM with HLA-A*01:01; at least 5 µM with HLA-C*04:01 [5]; at least 5 µM with HLA-B*45:06 (source organism: Homo sapiens); at least 5 µM with HLA-B*15:42 (source organism: Homo sapiens). Also, the Kd with HLA-C*12:03 (source organism: Homo sapiens) was 0.283 µM; with HLA-C*06:02 [6] it was 0.014 µM; in the assay with HLA-C*07:02 (source organism: Homo sapiens), at most 0.001 µM.

For the origin of these results see the Immune Epitope Database (IEDB).
